Results published in US20180117114A1, “PEPTIDES THAT MODULATE THE EFFECT OF THE CRMP: NEUROFIBROMIN COMPLEX ON SYNAPTIC TRANSMISSION” (Indiana University Research and Technology Coporation, priority 2015, published 2018).

Legend:
CaV2.2 [1] = target: T1, CaV2.2 (Homo sapiens, UniProt Q00975); assay: CaV2.2 surface staining in transfected HEK293 cells expressing CaV2.2; type: cell-based; conditions: HEK293 cells expressing CaV2.2, transiently transfected with EGFP-fused plasmids
T1 construct: expressed in transfected cells; host or cells: HEK293 cells expressing CaV2.2
T1 sequence (Q00975 whole entry, the tested form may be a part): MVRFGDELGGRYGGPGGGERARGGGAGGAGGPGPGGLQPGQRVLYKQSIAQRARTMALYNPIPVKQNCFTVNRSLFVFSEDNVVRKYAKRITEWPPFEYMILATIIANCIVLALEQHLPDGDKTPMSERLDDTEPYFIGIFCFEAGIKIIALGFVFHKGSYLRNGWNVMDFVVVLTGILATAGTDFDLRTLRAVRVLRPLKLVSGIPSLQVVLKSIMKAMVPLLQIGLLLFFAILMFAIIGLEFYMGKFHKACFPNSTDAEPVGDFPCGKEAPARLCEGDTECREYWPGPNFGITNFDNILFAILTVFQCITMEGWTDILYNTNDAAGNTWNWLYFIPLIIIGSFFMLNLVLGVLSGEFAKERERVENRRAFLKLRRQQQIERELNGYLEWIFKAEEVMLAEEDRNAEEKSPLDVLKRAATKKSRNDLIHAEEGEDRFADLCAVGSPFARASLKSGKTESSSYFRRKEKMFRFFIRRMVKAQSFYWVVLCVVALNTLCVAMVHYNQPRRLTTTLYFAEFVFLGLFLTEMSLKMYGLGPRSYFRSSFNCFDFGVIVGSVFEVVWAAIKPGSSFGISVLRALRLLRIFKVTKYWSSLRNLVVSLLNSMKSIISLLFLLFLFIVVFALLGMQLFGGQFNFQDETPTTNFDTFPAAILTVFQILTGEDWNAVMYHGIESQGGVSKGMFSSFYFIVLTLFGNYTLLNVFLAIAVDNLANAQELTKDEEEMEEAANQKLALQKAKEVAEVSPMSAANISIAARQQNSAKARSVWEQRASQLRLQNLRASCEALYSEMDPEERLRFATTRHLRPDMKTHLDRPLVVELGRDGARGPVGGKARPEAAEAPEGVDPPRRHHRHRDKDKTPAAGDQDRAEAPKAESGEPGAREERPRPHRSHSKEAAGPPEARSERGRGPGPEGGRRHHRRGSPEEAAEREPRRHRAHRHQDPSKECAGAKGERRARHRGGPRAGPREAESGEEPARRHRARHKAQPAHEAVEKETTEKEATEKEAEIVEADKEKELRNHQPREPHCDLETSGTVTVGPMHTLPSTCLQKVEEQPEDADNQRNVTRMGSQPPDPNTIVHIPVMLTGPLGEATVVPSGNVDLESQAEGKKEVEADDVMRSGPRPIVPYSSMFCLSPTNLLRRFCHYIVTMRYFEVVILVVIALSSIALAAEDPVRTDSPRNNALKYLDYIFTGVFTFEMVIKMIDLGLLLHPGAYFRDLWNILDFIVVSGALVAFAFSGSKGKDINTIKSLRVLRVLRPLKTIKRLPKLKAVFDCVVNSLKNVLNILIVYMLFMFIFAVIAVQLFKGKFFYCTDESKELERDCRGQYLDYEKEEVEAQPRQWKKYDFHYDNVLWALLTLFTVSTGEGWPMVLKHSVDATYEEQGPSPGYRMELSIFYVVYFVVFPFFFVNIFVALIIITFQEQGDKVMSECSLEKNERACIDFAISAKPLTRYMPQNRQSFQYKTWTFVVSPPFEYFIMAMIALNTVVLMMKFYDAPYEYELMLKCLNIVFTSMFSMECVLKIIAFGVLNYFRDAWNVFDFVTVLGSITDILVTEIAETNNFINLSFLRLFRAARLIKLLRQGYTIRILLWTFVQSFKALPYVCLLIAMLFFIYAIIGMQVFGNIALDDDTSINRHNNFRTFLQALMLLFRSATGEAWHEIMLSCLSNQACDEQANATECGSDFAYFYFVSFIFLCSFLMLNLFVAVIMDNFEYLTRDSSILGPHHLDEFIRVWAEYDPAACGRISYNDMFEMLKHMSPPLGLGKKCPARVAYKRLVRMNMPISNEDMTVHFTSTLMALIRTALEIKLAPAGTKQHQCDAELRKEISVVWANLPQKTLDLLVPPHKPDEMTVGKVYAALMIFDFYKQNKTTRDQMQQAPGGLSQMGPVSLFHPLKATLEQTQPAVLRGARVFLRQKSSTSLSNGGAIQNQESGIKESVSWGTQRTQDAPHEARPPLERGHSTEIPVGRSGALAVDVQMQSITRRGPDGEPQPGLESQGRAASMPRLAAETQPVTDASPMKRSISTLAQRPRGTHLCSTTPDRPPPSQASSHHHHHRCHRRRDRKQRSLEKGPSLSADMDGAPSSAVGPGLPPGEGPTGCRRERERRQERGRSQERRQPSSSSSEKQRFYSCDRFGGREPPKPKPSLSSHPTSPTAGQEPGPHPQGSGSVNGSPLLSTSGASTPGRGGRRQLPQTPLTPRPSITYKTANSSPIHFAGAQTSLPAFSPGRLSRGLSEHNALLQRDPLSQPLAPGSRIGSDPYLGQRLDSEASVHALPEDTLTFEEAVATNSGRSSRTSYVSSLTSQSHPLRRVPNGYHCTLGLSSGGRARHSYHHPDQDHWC
Experimental: (§1) Recently, it was shown that CRMP-2 facilitates CaV2.2 membrane trafficking in hippocampal and sensory neurons (12, 13), the hypothesis that the CBD3 peptide would act in a dominant negative manner to inhibit this CRMP-2 mediated trafficking was tested. Plasmids containing full-length CRMP-2 or the CBD3 peptide fused to enhanced green fluorescent protein (EGFP) were transiently transfected into human embryonic kidney 293 (HEK293) cells expressing CaV2.2. […] Since CBD3 peptide expression was sufficient in preventing forward trafficking of CaV2.2, it is possible that this would result in loss of currents via these channels. To test this, neurons were transfected with full-length CRMP-2 or CBD3 peptide and measured CaV2.2 currents 2 days post-transfection using whole-cell voltage clamp electrophysiology. Expression of CBD3 reduced peak Ca^2+ current density by ˜64% compared to CRMP-2 neurons (FIGS. 2C and 2D).

CaV2.2 [2] = assay: CaV2.2 currents in transfected neurons by whole-cell voltage clamp electrophysiology; type: cell-based; conditions: compared to CRMP-2 neurons; 2 days post-transfection
Experimental: as §1

CRMP-2 = target: T2, CRMP-2 (Mus musculus, UniProt O08553); assay: SPOTS blot of neurofibromin C-terminus peptides overlaid with mouse brain lysate, probed with CRMP-2 antibodies; type: binding; conditions: 15-mers, three CRMP-2 antibodies, FIG. 4
T2 construct: overlaid with wild-type mouse brain lysate in NF1 solubilization buffer; from tissue; host or cells: wild-type mouse brain lysate
Experimental: FIG. 4 presents plot of mean binding of CRMP-2 to neurofibromin versus peptide blot position. Neurofibromin peptides (15-mers) were spotted onto a SPOTS blot membrane from amino acids 2260-2818 of […], a region where neurofibromin has been reported to bind CRMP-2. The blots were blocked, then overlaid with wild-type mouse brain lysate in NF1 solubilization buffer, washed briefly, then incubated with poly CRMP-2 (Sigma) or mono CRMP-2+poly CRMP-2 phospho Ser522 and Ser555 antibodies. The blots were scanned (Licor) and the spot intensity normalized to the maximum intensity in each series. The normalized data was then averaged and the mean+/−SEM is shown in the graph above (n=3).
Referring now to FIG. 4, peptides encompassing the C-terminus of neurofibromin were spotted with CRMP-2 and the resulting blot was probed with three different CRMP-2 antibodies. […] These peptides are: SEQ ID NO: 1, RVSHGQIKQIIRILS; SEQ ID NO: 2, KGYRHPSPAIVARTV, and SEQ ID NO: 3, YLQSFGFNGLWRFAG. In order to facilitate their entry into cells, each peptide may be fused to a portion of the cell-membrane transduction domain of the human immunodeficiency virus-type 1 (HIV-1) transactivator of transcription (TAT) protein (SEQ ID NO: 4 and/or SEQ ID NO: 6).

Sequence | cells exhibiting CaV2.2 surface staining (CaV2.2 [1]) [%] | reduction of peak Ca^2+ current density (CaV2.2 [2]) [%] | CRMP-2 binding to neurofibromin peptides (normalized spot intensity) (CRMP-2)
DFVYKRIKARSRLAE [CBD3 peptide, a peptide derived from a portion of the CBD3 region; expressed fused to EGFP in b74] | ~10 | ~64 | 
KGYRHPSPAIVARTV [SEQ ID NO: 2, a peptide encompassing a portion of the C-terminus of neurofibromin] |  |  | peaks
RVSHGQIKQIIRILS [SEQ ID NO: 1, a peptide encompassing a portion of the C-terminus of neurofibromin] |  |  | peaks
YLQSFGFNGLWRFAG [SEQ ID NO: 3, a peptide encompassing a portion of the C-terminus of neurofibromin] |  |  | peaks
